Legend:
[1] = target: T1, E. rectale acyl carrier protein (T protein; gene ereT)
T1 chain: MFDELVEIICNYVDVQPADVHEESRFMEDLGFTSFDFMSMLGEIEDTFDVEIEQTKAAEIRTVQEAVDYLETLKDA

[2] = target: T2, C. eutactus acyl carrier protein (T protein; gene ceuT)
T2 chain: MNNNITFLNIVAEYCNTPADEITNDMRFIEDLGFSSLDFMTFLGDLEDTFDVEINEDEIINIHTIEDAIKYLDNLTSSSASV

B1: C. eutactus fatty acyl-ACP synthetase (A protein; gene ceuA) (protein)
chain: MEENILEIVEKSCRIHRDVIAVKYLSHREIVEKSYGDMWDDIRKTAVILRNNGLCGTHIALVGSSSYEWICAYMAILFTGNTAVPLDANLSVSELHELLNRSGSIALFCGASRKDVITELTDDCPEMNIVFTMEKKVDIEHLEGADSNPQLAILSFEQLRNEITIPDDFAFADQDKDKMCTLMYTSGTTGKSKGVMLSQFNLAQNVENVYVNLEPGVTILSVLPIHHAFCLTMEWMKGISLGATICINDSLLHMLKNMKRFQPVGMLMVPLMVETIYKKLKDVNPLLPKKLVAKEAFGGKLEYIFCGGAYLDPMYVTEFKKYGIDILQGYGMTECSPVICSNNHRYNRPGSVGKLLDNCAVRFVDEEIQVKGTSVMSGYYDMPNETAEAFQDGWLCTGDLGYLDSDGFMYITGRKKNLIILANGENISPEELEGKLSIEPLISEIVITGDGNHLTAHIYPDQDFVDKKHMDAARTSEKLQKIIDTFNKNQPTYKRISALDIRKEPFEKSSTKKIKRNLV
adenylation activity after swapping the T protein between the C. eutactus and E. rectale pathways [1]: While the C protein lost activity, the A protein retained activity after swapping the T protein

B2: E. rectale condensation domain protein (fatty acyl-transferase, C protein; gene ereC) (protein)
chain: MKTRKGHNVYPITVAQKFHLYYAKYCPNMAVLNIGTSLTIGTELDWNVLRDSINYAYARNEAMRIRFTRDKDGECYQYIADVDEDFKERTVDFKDFTDVTMEEAENEMQGWTQVPFEFEDSPMTKIVMIKMPDGFNGVYFLGHHMVVDAQSLIAFLKDIIEIYCNAMYEGVPFPKDMCSYIEQLKKDLAYEAGSKAQLRDREFFEKLIRQSEPIYNGIDGTAKLDAARELMHDNKLRSAFNASDDVTSALDIFHLEAEPTKRLMDFCEKYHISLACLLLMGIRTFFQKENGFDDVSVNNAIARRATLKEKKSGGTRIHSFPFRTCFSKDVRFIDAVYTIRDKQNELFRHANYNPTEYFALRSKTYPQPKAGLTYEPMSLTYQPMTLKEKGLNDLGDIKYKTKWYPNGMTTQAMYLTVMHRPEDNGLDFSFEHQVKAVSRKQLEYMYYYLCKIMFKGAENPELTIGEIIKLV
enzymatic production of hybrid FAA with the T and C protein pair from the same pathway and a swapped A protein [1]: Swapping the A domain, while retaining the T and C protein pair from the same pathway, permitted the enzymatic production of hybrid FAA that incorporated the substrates from two different pathways | condensation activity (enzyme-catalysed FAA product formation) after swapping the T protein between the C. eutactus and E. rectale pathways [2]: While the C protein lost activity, the A protein retained activity after swapping the T protein

B3: C. eutactus condensation domain protein (fatty acyl-transferase, C protein; gene ceuC) (protein)
chain: MPRKYYPLTPSQKIHFKPIIEFGTQQVANISICMTLQAPLDFGLLKKCIQLEYERYECLRIRFTKVDQNGEVRQYVVSRDDRDIDYENLSWLSGDDAYHRMEEWSRIPFDGDNIPMNVIKMISLPGGYNGLYIKIDHRLMDSCGAIVMVNDIMELYCHYKFGTPYPEDMASFTDMVERDLKKSTDEKRVSKDRMYWQNVLEENGEPIYSDIQGQRILQESRRLHNDKSLRAADQEINDLSVATKNYHLDAEPTQNLLDFCMNNHISMTNLILMGIRTYLSKANGGQTDISIRNYVSRRSTHAEWVSGGSRAMAYPCRTIIDPDTEFLDAVFMIQDVQNHVYRHCNYDPELLSDQMKEMFHTPPHTTYESVGLTYQPLPIRLKNPHLENISVRSMWIPNGTSKQKIYLTVMHSANDLGLNFYFRYQTASLSEQDIELFYYYLMKIIFKGIAEPEMTVGEIIECI
condensation activity (enzyme-catalysed FAA product formation) after swapping the T protein between the C. eutactus and E. rectale pathways [1]: While the C protein lost activity, the A protein retained activity after swapping the T protein | enzymatic production of hybrid FAA with the T and C protein pair from the same pathway and a swapped A protein [2]: Swapping the A domain, while retaining the T and C protein pair from the same pathway, permitted the enzymatic production of hybrid FAA that incorporated the substrates from two different pathways

B4: E. rectale fatty acyl-ACP synthetase (A protein; gene ereA) (protein)
chain: MLFHTIPDILSYANEAYGADDAIRWKKSKNEIESRTYSELKNDTDSFANAIEKLGKKGQHIAVIGPSSYEWIVSYLAITESGSVAVPIDASLPAADICELLDRASVRMLIFDEARSDVAEAAAKSCHDINVYVSMNSTEHCPQVLSFKGLIDDNRGSYEPAVAEDALCTIMFTSGTTGKSKGVMLTQNNLAENATCLDMKIGPHTVILSVLPIHHAYCLSMDILKGISLGSVICINDSIMRMAKNIQLFTPDMILMVPLMIETFARKLEEVRAAGLPAEPVRKKMFGERLHTICSGGAYLNPDYVDLFAEFGITILQGYGMTECSPVISTNLSWDIRKNSVGKLMPNCEAKTVDGELFVRGTSVMQGYYKMPKETEETLSDGWLHTGDLGYVDEDGYIYLTGRRKNLIITKNGENVSPEELENALSVNHLIKEIIVRESEGVIEAEIFPDREYAQNTGIADIRSALQALIDEYNVNAPAYKRIYSIKVRESEFEKTASRKIKRS
LC-MS/MS detection of fatty acid thiotemplated T protein fragment after reaction with the A protein, Sfp and lauric acid [1]: This was further confirmed by the detection of fatty acid thiotemplated T protein fragment using LC-MS/MS (FIG. 22) | PPi level from ATP consumption (A and T proteins relative to negative control) [1]: Up to 30-fold increase in PPi level relative to negative control was observed with fatty acid substrates | adenylation activity after swapping the T protein between the C. eutactus and E. rectale pathways [2]: While the C protein lost activity, the A protein retained activity after swapping the T protein

Reference: patent US20200299738
